A short description of the data set: self-splicing fitness, log relative to wild type (ln ratio); higher = more splicing; Tetrahymena group I intron in knt gene, E. coli kanamycin selection, DiMSum; sequences stand for … in CUCUCU…GGAGGGAAAAGUUAUCAGGCAUGCACCUGGUAGCUAGUCUUUAAACCAAUAGAUUGCAUCGGUUUAAAAGGCAAGACCGUCAAAUUGCGGGAAAGGGGUCAACAGCCGUUCAGUACCAAGUCUCAGGGGAAACUUUGAGAUGGCCUUGCAAAGGGUAUGGUAAUAAGCUGACGGACAUGGUCCUAACCACGCAGCCAAGUCCUAAGUCAACAGAUCUUCUGUUGAUAUGGAUGCAGUUCACAGACUAAAUGUCGGUCGGGGAAGAUGUAUUCUUCUCAUAAGAUAUAGUCGGACCUCUCCUUAAUGGGAGCUAGCGGAUGAAGUGAUGCAACACUGGAGCCGCUGGGAACUAAUUUGUAUGCGAAAGUAUAUUGAUUAGUUUUGGAGUACUCGUGGUCG
Summed up:
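Colonies from six replicate transformations of E. coli BL21(DE3) were pooled and amplicon-sequenced on an Illumina HiSeq 2500. The library placed an intron with all eight P1ex-region nucleotides randomised inside the knt kanamycin-resistance gene on pET-22b(+), and cells grew overnight at 37°C or 30°C on LB agar with or without 25 μg/mL kanamycin (plus 100 μg/mL carbenicillin, 50 μM IPTG, 0.2% rhamnose). Fitness is the DiMSum error-weighted combination of wild-type-normalised replicate fold changes, kanamycin versus none.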

± gives the uncertainty stated by the source.

Consider UUUCAGCAAUAUUACGAGGC, for which, for the setting “30 °C”, the “self-splicing fitness (ln)” value is -2.12 ± 0.22. GGAAAGCAAUAUUACGUGGG: the “self-splicing fitness (ln)” value is -3.72 ± 0.19 (30 °C) and -1.47 ± 0.11 (37 °C). The like results for GAAUAGCAAUAUUACGCCCC were, in that order, -0.0149 ± 0.39 and -0.245 ± 0.42. The like results for UCUCAGCAAUAUUACGAUAA were, in that order, -2.15 ± 0.21 and -1.33 ± 0.21. The corresponding values for UCCAAGCAAUAUUACGAAGA are -0.503 ± 0.086 and -0.326 ± 0.087. In the case of UAAGAGCAAUAUUACGGGUC, for the setting “37 °C”, the “self-splicing fitness (ln)” value is -1.7 ± 0.41.

For the sequence CCACAGCAAUAUUACGCAAA, the “self-splicing fitness (ln)” value runs as follows: (30 °C) -2.03 ± 0.22; (37 °C) -3.24 ± 0.32. The like results for GUGGAGCAAUAUUACGAUCA were, in that order, -2.19 ± 0.49 and -0.101 ± 0.2. In the case of UGCGAGCAAUAUUACGCUAU, the “self-splicing fitness (ln)” value (37 °C) is -2.46 ± 0.38. Turning to UCACAGCAAUAUUACGCUUA, the “self-splicing fitness (ln)” value is -1.66 ± 0.15 (30 °C) and -0.902 ± 0.12 (37 °C).

As for CAGCAGCAAUAUUACGAAAG, the “self-splicing fitness (ln)” value runs as follows: (30 °C) -0.597 ± 0.09; (37 °C) -0.18 ± 0.12. The corresponding values for CAACAGCAAUAUUACGUUCG are -0.959 ± 0.051 and -0.171 ± 0.065. The corresponding values for AUCCAGCAAUAUUACGAUCG are -2.6 ± 0.2 and -3.02 ± 0.37.

Regarding AUUUAGCAAUAUUACGCGGC, the “self-splicing fitness (ln)” value (37 °C) is -2.08 ± 0.5. Consider AGUAAGCAAUAUUACGAUAC, for which the “self-splicing fitness (ln)” value is -3.12 ± 0.28 (30 °C) and -2.48 ± 0.38 (37 °C). The corresponding values for UAUAAGCAAUAUUACGUGGU are -3.76 ± 0.29 and -2.53 ± 0.21. The like results for GACAAGCAAUAUUACGGCAU were, in that order, -0.363 ± 0.067 and 0.227 ± 0.088. The corresponding values for GUCCAGCAAUAUUACGAGGA are -2.98 ± 0.27 and -2.64 ± 0.3. On to UGAGAGCAAUAUUACGGCUU, for which the “self-splicing fitness (ln)” value (30 °C) is -4.13 ± 0.42. Take CUAUAGCAAUAUUACGGCAA: the “self-splicing fitness (ln)” value is -3.31 ± 0.29 (30 °C) and -2.63 ± 0.45 (37 °C). The corresponding values for AAUUAGCAAUAUUACGACAA are -1.79 ± 0.21 and 0.209 ± 0.24. The corresponding values for UGGUAGCAAUAUUACGAUGU are -3.19 ± 0.19 and -2.12 ± 0.26. For CGCGAGCAAUAUUACGAUUG, the “self-splicing fitness (ln)” value was -1.3 ± 0.12 (30 °C) and -0.15 ± 0.12 (37 °C). The like results for GUGUAGCAAUAUUACGUAAG were, in that order, -1.56 ± 0.1 and -1.57 ± 0.16. The corresponding values for AGUAAGCAAUAUUACGGGUC are -3.31 ± 0.42 and -2.92 ± 0.31. The like results for AGCAAGCAAUAUUACGGUUU were, in that order, -1.28 ± 0.051 and -0.398 ± 0.066. As for UUUCAGCAAUAUUACGCAGA, the “self-splicing fitness (ln)” value is -1.32 ± 0.27 (30 °C) and -1.6 ± 0.24 (37 °C). The like results for ACAUAGCAAUAUUACGUCAG were, in that order, -2.66 ± 0.13 and -3.18 ± 0.18. The corresponding values for GGAUAGCAAUAUUACGAGUA are -2.54 ± 0.48 and -1.14 ± 0.16. The like results for UCUCAGCAAUAUUACGGCAG were, in that order, -3.36 ± 0.31 and -0.98 ± 0.19. Regarding UCCCAGCAAUAUUACGCUCC, the “self-splicing fitness (ln)” value (30 °C) is -1.78 ± 0.22 and the “self-splicing fitness (ln)” value (37 °C) was -0.443 ± 0.3. As to AUCCAGCAAUAUUACGUUCU, the “self-splicing fitness (ln)” value was -1.64 ± 0.096 (30 °C) and -1.39 ± 0.13 (37 °C). The like results for UUGAAGCAAUAUUACGCUUG were, in that order, -1.02 ± 0.064 and -0.679 ± 0.087. The corresponding values for AGAAAGCAAUAUUACGGAAG are -2.64 ± 0.19 and -1.71 ± 0.22. The like results for AUGCAGCAAUAUUACGUGCC were, in that order, -1.08 ± 0.11 and -0.869 ± 0.15.

With CCGAAGCAAUAUUACGUGGA, the “self-splicing fitness (ln)” value is -3.71 ± 0.29 (30 °C) and -2.47 ± 0.17 (37 °C). The like results for UCCGAGCAAUAUUACGACUU were, in that order, -2.69 ± 0.33 and -2.98 ± 0.43. The like results for CGCUAGCAAUAUUACGUCGA were, in that order, -2.02 ± 0.35 and -1.78 ± 0.32. The like results for GGGCAGCAAUAUUACGUCUG were, in that order, -1.11 ± 0.22 and -1.04 ± 0.16.

Turning to CGACAGCAAUAUUACGGUCC, the “self-splicing fitness (ln)” value reads like this: (30 °C) -1.13 ± 0.11; (37 °C) -0.69 ± 0.14. In the case of CUGGAGCAAUAUUACGCGUU, the “self-splicing fitness (ln)” value is, setting by setting: (30 °C) -3.89 ± 0.33; (37 °C) -1.86 ± 0.27. The like results for CUACAGCAAUAUUACGUUCG were, in that order, -0.275 ± 0.063 and 0.0364 ± 0.083. The corresponding values for UUUAAGCAAUAUUACGGUGC are -3.88 ± 0.46 and -2.01 ± 0.47. The like results for AGCUAGCAAUAUUACGGAAC were, in that order, -2.7 ± 0.2 and -2.38 ± 0.24. Take AAUCAGCAAUAUUACGGAGG: the “self-splicing fitness (ln)” value is, setting by setting: (30 °C) -1.01 ± 0.084; (37 °C) -1.18 ± 0.1. In the case of ACACAGCAAUAUUACGGCGU, the “self-splicing fitness (ln)” value was -0.67 ± 0.07 (30 °C) and -0.414 ± 0.093 (37 °C).

For the sequence UUCCAGCAAUAUUACGCCCG, the “self-splicing fitness (ln)” value is -1.33 ± 0.15 (30 °C) and -1.23 ± 0.17 (37 °C). As for UUUUAGCAAUAUUACGGCUG, the “self-splicing fitness (ln)” value runs as follows: (30 °C) -0.732 ± 0.48; (37 °C) -0.495 ± 0.38. As for UUUAAGCAAUAUUACGAGUC, the “self-splicing fitness (ln)” value (37 °C) is -2.65 ± 0.48. In the case of GAGAAGCAAUAUUACGCGAA, the “self-splicing fitness (ln)” value (30 °C) is -2 ± 0.11 and the “self-splicing fitness (ln)” value (37 °C) is -1.93 ± 0.17. The corresponding values for UAGAAGCAAUAUUACGAUCG are 0.151 ± 0.093 and 0.149 ± 0.11.

For UACAAGCAAUAUUACGUUAU, the “self-splicing fitness (ln)” value was -3.39 ± 0.19 (30 °C) and -1.81 ± 0.1 (37 °C). The like results for GAUCAGCAAUAUUACGUCGU were, in that order, -0.403 ± 0.079 and -0.669 ± 0.1. In the case of GCCUAGCAAUAUUACGUUCU, the “self-splicing fitness (ln)” value runs as follows: (30 °C) -1.96 ± 0.14; (37 °C) -0.354 ± 0.12. The like results for CGUAAGCAAUAUUACGGAUC were, in that order, -3.4 ± 0.23 and -3.44 ± 0.37. The corresponding values for CGCGAGCAAUAUUACGACUA are -2.42 ± 0.23 and -2.64 ± 0.25.

Take CUACAGCAAUAUUACGUUAG: the “self-splicing fitness (ln)” value (30 °C) is -3.78 ± 0.23 and the “self-splicing fitness (ln)” value (37 °C) was -2.54 ± 0.14.

For the sequence UGGAAGCAAUAUUACGUUUA, the “self-splicing fitness (ln)” value (30 °C) is -0.859 ± 0.072 and the “self-splicing fitness (ln)” value (37 °C) was -0.47 ± 0.086. The corresponding values for UGCAAGCAAUAUUACGGGUC are -3.11 ± 0.24 and -2.11 ± 0.21. Take AGCUAGCAAUAUUACGUGGA: the “self-splicing fitness (ln)” value reads like this: (30 °C) -3.53 ± 0.2; (37 °C) -2.04 ± 0.14. Take UGCAAGCAAUAUUACGGAUC: the “self-splicing fitness (ln)” value is, setting by setting: (30 °C) -3.09 ± 0.17; (37 °C) -2.38 ± 0.16. The corresponding values for CACAAGCAAUAUUACGGCUA are -2.02 ± 0.12 and -1.26 ± 0.11.

In the case of CCACAGCAAUAUUACGGUAU, the “self-splicing fitness (ln)” value was -3.97 ± 0.19 (30 °C) and -2.6 ± 0.16 (37 °C). The like results for UAAUAGCAAUAUUACGGGGU were, in that order, -3.73 ± 0.42 and -1.38 ± 0.45.

On to CCUGAGCAAUAUUACGCGUA, for which the “self-splicing fitness (ln)” value is -3.77 ± 0.34 (30 °C) and -2.33 ± 0.23 (37 °C). As to CAUUAGCAAUAUUACGACGC, under “30 °C”, the “self-splicing fitness (ln)” value is -1.73 ± 0.39. As for AUACAGCAAUAUUACGACUG, the “self-splicing fitness (ln)” value (30 °C) is -1.52 ± 0.077 and the “self-splicing fitness (ln)” value (37 °C) is -0.848 ± 0.097. The corresponding values for UGAAAGCAAUAUUACGCGUC are -2.59 ± 0.31 and -2.56 ± 0.34. The like results for GGAUAGCAAUAUUACGUCAU were, in that order, -2.02 ± 0.11 and -0.395 ± 0.12. For GCCCAGCAAUAUUACGGAAG, the “self-splicing fitness (ln)” value runs as follows: (30 °C) -2.76 ± 0.13; (37 °C) -1.4 ± 0.11.

Turning to CGACAGCAAUAUUACGUAGC, the “self-splicing fitness (ln)” value is, setting by setting: (30 °C) -3.61 ± 0.18; (37 °C) -2.21 ± 0.16. The corresponding values for AGAAAGCAAUAUUACGCAGA are -2.03 ± 0.14 and -1.72 ± 0.13.

Take GGAAAGCAAUAUUACGGCAU: the “self-splicing fitness (ln)” value was -1.03 ± 0.13 (30 °C) and -0.672 ± 0.15 (37 °C). The like results for CGAGAGCAAUAUUACGGGGC were, in that order, -2.35 ± 0.31 and -2.61 ± 0.39. The like results for GACUAGCAAUAUUACGGACG were, in that order, -1.4 ± 0.21 and -1.85 ± 0.13. For the sequence AGAGAGCAAUAUUACGUGUC, the “self-splicing fitness (ln)” value (37 °C) was -2.33 ± 0.37. Same read-out and setting: in the case of GAUUAGCAAUAUUACGCCAU it was -1.97 ± 0.47. For the sequence GGCGAGCAAUAUUACGGGUU, the “self-splicing fitness (ln)” value was -2.52 ± 0.15 (30 °C) and -1.32 ± 0.13 (37 °C).

The values above are taken from the supplement of paper PMC7877785.
